Reference: article PMC10955041, “Reverse-engineering the anti-MUC1 antibody 139H2 by mass spectrometry–based de novo sequencing” (Life Science Alliance, 2024)

B1: hybridoma-derived 139H2 IgG (antibody, V domains shown)
VH: QVQLQQSGAELVKPGASVKLSCKASGYTFTNYYMYWVLQRPGQGLEWIGEINPSNGGTTFNEKFKNKATLTVDKSSSTAYMQLNSLTSEDSAVYYCTRSRYGNYVNYGMDYWGQGTSVTVSS
VL: DIVMSQSPSSLAVSVGEKVTMSCKSSQSLLYSNTQKNYLAWYQQKPGQSPKLLIYWASTRESGVPDRFTGSGSGTDFTLTISSVKAENLAVYYCQQYYRYPPTFGGGTKLELK
notes: as the heavy-chain variable domain of m1 (IGHV1-53); as the light-chain variable domain of m1 (IGKV8-30); mouse kappa light-chain constant region; Mouse IgG1, kappa; also called original hybridoma-derived 139H2; 139H2 WT; source: hybridoma culture supernatant (gift, NKI), purified (Protein G Sepharose); copies: 2 + 2
B2: recombinant (reverse-engineered) 139H2 IgG (antibody, V domains shown)
VH: B1 VH
VL: B1 VL
notes: also in PDB 8P6I; standard mouse Ig gamma-1 (IGHG1) constant region, linker and Fc region, UniProt P01868.1; mouse kappa light-chain constant region (kappa light-chain backbone); Mouse IgG1, kappa; also called synthetic recombinant 139H2; recombinant 139H2; source: HEK293 cells (ImmunoPrecise Antibodies), culture supernatant, purified (HisTrap Excel); copies: 2 + 2
B3: recombinant 139H2 Fab fragment (Fab, V domains shown)
VH: B1 VH
VL: B1 VL
notes: as the heavy-chain variable domain of m1 (IGHV1-53); mouse Ig gamma-1 (IGHG1) Fab constant region; as the light-chain variable domain of m1 (IGKV8-30); mouse kappa light-chain constant region, as in m1; also called monovalent Fab fragment; anti-MUC1 Fab; source: HEK293 cells (ImmunoPrecise Antibodies), culture supernatant, purified (HisTrap Excel, Superdex 200 SEC)

molecular target: T1, full-length MUC1 glycoprotein of HT29-MTX cells (Homo sapiens, HT29-MTX cells, UniProt P15941, VNTR heavily O-linked glycosylated); assay: far-Western, overlay or dot blot; immunoblot of SDS lysates of HT29-MTX and HT29-MTX ΔMUC1 cells on a mucin-SDS gel, PVDF; 139H2 antibodies 1:1,000 in TSMT with 1% BSA, 1 h at RT; detected with anti-mouse IgG; details: one partner purified
T1 construct: Mucin 1 (MUC1), endogenous in the human colon cancer cell line HT29-MTX; band at an estimated 600 kD; written here as one chain; also called Mucin 1; source: endogenous, HT29-MTX lysate (Western blot) and fixed, permeabilized HT29-MTX monolayers (immunofluorescence)
T1 sequence (P15941 24-1255): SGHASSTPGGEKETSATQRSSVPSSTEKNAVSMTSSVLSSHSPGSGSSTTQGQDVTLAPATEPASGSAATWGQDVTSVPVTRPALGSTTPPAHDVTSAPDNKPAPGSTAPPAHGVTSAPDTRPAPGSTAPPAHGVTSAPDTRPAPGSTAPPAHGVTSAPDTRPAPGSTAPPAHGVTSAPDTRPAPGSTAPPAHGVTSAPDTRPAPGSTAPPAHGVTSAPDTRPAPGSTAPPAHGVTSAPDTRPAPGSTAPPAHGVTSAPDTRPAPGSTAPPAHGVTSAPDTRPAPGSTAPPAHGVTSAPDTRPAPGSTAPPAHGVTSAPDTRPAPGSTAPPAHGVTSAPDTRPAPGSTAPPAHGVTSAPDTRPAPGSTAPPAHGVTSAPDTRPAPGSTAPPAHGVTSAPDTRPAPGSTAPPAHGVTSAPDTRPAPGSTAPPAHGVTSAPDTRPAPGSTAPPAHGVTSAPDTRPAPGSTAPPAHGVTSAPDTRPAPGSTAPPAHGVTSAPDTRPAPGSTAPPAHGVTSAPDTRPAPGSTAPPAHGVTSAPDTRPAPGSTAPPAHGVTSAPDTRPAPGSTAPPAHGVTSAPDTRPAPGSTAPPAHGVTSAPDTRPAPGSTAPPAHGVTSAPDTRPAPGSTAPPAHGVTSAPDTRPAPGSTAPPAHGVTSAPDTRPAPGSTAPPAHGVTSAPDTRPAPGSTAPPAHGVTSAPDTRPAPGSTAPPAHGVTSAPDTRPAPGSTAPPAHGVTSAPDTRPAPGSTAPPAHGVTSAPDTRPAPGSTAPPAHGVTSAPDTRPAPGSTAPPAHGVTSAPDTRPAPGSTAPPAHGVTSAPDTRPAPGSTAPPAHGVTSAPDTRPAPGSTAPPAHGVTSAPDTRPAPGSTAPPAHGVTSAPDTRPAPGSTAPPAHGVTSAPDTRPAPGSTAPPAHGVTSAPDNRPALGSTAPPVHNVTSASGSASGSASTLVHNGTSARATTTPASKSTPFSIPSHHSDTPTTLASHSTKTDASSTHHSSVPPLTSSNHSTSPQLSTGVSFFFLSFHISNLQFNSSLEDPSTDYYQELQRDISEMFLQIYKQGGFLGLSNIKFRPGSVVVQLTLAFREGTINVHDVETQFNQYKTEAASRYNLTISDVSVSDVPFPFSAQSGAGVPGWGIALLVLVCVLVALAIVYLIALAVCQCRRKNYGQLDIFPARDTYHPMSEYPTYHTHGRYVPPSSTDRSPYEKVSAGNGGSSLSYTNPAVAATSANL

Binder | binding result
B1 | binds
B2 | binds
B3 | binds
